From US20220213198A1, “METHOD OF TREATMENT” (The Council of the Queensland Institute of Medical Research, priority 2019, published 2022)
“Also recorded” adds a separate entry of the source. Each block holds one molecule with its values, some of them ahead of it.

Key:
[1] = test system: MR1 / MAIT cells; details: cited from earlier work; for effect on MAIT cell activation: background statement
[2] = biological target: T1, surface MR1 on mouse tumor cell lines (Mus musculus, UniProt Q8HWB0); details: stated as property of the ligand; cited from earlier work
T1 construct: endogenous in cells

[3] = test system: B16F10 melanoma cells; assay: B16F10 experimental lung metastasis model; assay type: in vivo, mouse
Protocol: FIG. 2. […] (A) The schematic and timeline of expanding MAIT cells from splenocytes derived from C57BL/6 WT mice with IL-2 and 5-OP-RU, for sorting and adoptive transfer into tumor-bearing mice. (B, C) Groups of WT or MR1^−/− or Rag2cγ^−/− mice (n=5-6/group) were injected i.v. with (B) 1×10^5 or (C) 1×10^4 B16F10 melanoma cells. In some groups, sorted MAIT or T conventional cells (cT) (non-MAIT αβ^+ T cells) (2×10^5 cells/mouse) from C57BL/6 (B) WT or (C) TCRδ^−/− mice were i.v. injected into the indicated groups of mice one day before tumor inoculation. (C) One group of mice received i.v injection of media alone as a control. (B, C) On day 14 relative to tumor cell inoculation, lungs were harvested and the metastatic burden was quantified by counting colonies on the lung surface. Data presented as mean±SEM. (D) B16F10 or LWT1 melanoma cells were stimulated in vitro with DMSO or 5-OP-RU (100 nM) for 4 hours before cell surface MR1 expression was determined by flow cytometry. Groups of C57BL/6 WT or MR1^−/− mice (n=5-6/group) were i.v. injected with (E) 1×10^5 B16F10 or (F) 5×10^5 LWT1 cells melanoma cells pulsed with DMSO or 5-OP-RU (100 nM, 4 hours). Fourteen days later relative to tumor cell inoculation, lungs were harvested and the metastatic burden was quantified by counting colonies on the lung surface. Data presented as mean±SEM. Experiments performed once for (B, C, F) and three times for (D, E) with one representative experiment shown. Significant differences between groups as indicated by crossbars were determined using a one-way ANOVA followed by Tukey's post-hoc test (B, E, F), *p<0.05, **p<0.01, ****p<0.0001
FIG. 5. […] (A) Generation of three independent B16F10 cell lines knocked out for MR1 using three different MR1 sgRNA. […] Empty vector transfected B16F10 cells were used as a positive control. (B, C) Groups of C57BL/6 WT, MR1^−/− or Rag2cγ^−/− mice (n=5-6/group) were i.v. injected with either (B) 1×10^5 B16F10 vector control cells or the indicated clone of B16F10 cells lacking MR1 (sgR1, sgR2, sgR3) or (C) 1×10^4 B16F10-MR1^KO cells (sgR3 clone). On day 14 relative to tumor cell inoculation, lungs were harvested and the metastatic burden was quantified by counting colonies on the lung surface. Data presented as mean±SEM. (D) Re-expression of GFP or GFP-MR1 expressing vector into B16F10-MR1^KO (sgR3 clone). MR1 surface expressions of these cells stimulated with or without 5-OP-RU were assessed by flow cytometry. (E) Groups of C57BL/6 WT mice (n=6/group) were i.v. injected with 1×10^5 B16F10-MR1^KO (sgR3 clone) transfected with empty GFP-expressing vector or MR1-GFP-expressing vector. (F) Groups of C57BL/6 WT or MR1^−/− mice were i.v. injected with parental B16F10 cells treated with vehicle (dd H2O) or AC-6-FP (10 μM, 18 hours). On day 14 relative to tumor cell injection, lungs were harvested and the metastatic burden was quantified by counting colonies on the lung surface. Data presented as mean±SEM. Experiments performed twice for (A-E) and once for (F). Significant differences between groups as indicated by crossbars were determined by a one-way ANOVA followed by Tukey's post-hoc test (A, F), or a Mann-Whitney test (C, E), *p<0.05, **p<0.01, ****p<0.0001.
FIG. 6. […] Groups of C57BL/6 WT or MR1^−/− mice (n=5-6/group) were i.v. injected with (A, B) 1×10^5 B16F10, (C) 1×10^5 parental B16F10 or 2×10^5 B16F10-MR1^KO (sgR3 clone) melanoma cells and (D) 5×10^5 LWT1 melanoma cells or s.c injected with (E) 1×10^6 MCA1956 fibrosarcoma or (F) 1×10^6 SM1WT1 melanoma cells on day 0.

[4] = biological target: T2, mouse MR1 (MHC class I-related protein 1) (mouse, UniProt Q8HWB0 19-341); assay: flow cytometry on mouse tumor cell lines with or without 5-OP-RU
T2 construct: whole, on cells; also called surface MR1
T2 sequence (Q8HWB0 19-341): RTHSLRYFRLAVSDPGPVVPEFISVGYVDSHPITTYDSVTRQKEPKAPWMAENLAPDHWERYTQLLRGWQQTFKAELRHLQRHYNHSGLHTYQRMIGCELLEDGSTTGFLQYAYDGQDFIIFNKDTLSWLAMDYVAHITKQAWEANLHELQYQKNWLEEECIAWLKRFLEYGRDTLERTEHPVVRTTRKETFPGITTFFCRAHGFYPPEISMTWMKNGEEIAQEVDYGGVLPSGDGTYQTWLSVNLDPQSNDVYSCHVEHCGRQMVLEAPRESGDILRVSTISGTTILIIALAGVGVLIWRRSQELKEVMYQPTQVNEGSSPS
Text: (§1) MR1 mRNA transcripts are present in different tissues and cell lines from mice and humans. […] In contrast, whether mouse tumor cell lines express MR1 has not previously been examined. […] Basally, the level of MR1 was almost undetectable on the surface of all tumor cell lines examined (FIG. 2D). […] The kinetics of MR1 upregulation on B16F10 cells was similar to what was previously reported for human C1R cells (B-cell lymphoblastoid cell line) (McWilliam et al., 2016). […] Next, the impact of up-regulation of MR1 on B16F10 or LWT1 prior to i.v injection to WT or MR1−/− mice on the number of lung metastases was assessed.

[5] = biological target: T3, human MR1 (MHC class I-related protein 1) (human, UniProt Q95460 23-341); assay: flow cytometry; human cell lines with or without 5-OP-RU (data not shown)
T3 construct: The assays used endogenous MR1 of human cell lines (flow cytometry) and of FFPE tumor sections (IHC); no signal peptide limits are stated
T3 sequence (Q95460 23-341 limits assumed): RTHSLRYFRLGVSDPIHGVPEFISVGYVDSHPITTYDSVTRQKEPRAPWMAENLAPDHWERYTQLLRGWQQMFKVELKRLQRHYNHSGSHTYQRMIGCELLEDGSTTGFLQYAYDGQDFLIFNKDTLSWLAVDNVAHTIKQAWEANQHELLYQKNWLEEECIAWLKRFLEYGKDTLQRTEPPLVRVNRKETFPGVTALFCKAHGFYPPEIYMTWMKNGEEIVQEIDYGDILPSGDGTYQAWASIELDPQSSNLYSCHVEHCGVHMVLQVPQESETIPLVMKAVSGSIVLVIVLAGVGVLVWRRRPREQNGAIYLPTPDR

[6] = biological target: mouse MR1 (Mus musculus, UniProt Q8HWB0); assay: Anti-MR1 reactivity with mouse MR1; assay type: binding; details: flow cytometry antibody
Text: as §1

[7] = biological target: human MR1 (Homo sapiens, UniProt Q95460); assay: Anti-MR1 reactivity with human MR1; assay type: binding; details: flow cytometry antibody
Text: as §1

Molecule: Nc1nc2ncc(C=O)nc2c(=O)[nH]1 [6-FP, 6-formylpterin]
effect on MAIT cell activation [1]: inhibit MAIT cell activation

Molecule: CC(=O)Nc1nc2ncc(C=O)nc2c(=O)[nH]1 [AC-6-FP, acetyl 6-formylpterin]
effect on MAIT cell activation [1]: does not activate MAIT cells; also recorded: inhibit MAIT cell activation
MR1 expression [2]: upregulates MR1
number of lung metastases ([3]; WT mice injected with B16F10 pre-treated 10 μM 18 hours, vs vehicle-treated, day 14): decrease in metastases numbers
number of lung metastases ([3]; WT mice injected with B16F10 pre-treated 10 μM 18 hours, vs vehicle-treated, day 14, listed as Ac-6-FP): dramatically reduced

binding result [4]: binds
binding result [5]: binds
B1: anti-MR1 antibody 26.5 (antibody, V domains shown)
VH: QVQLQQSGTELVRPGTSVKVSCKASGYAFSNYLIEWIKQRPGQGLEWIGVINPGSGGISYNEKFKGKATLTADKSSSTAYMQLSSLTSEDSAVYFCARWGYLYYYTMDHWGQGTSVTVSS
VL: DVLMTQTPLSLPVSLGDQASISCRSSQSIVQGSGNTFLDWYLQKPGQSPKVLIYKVSNRFSGVPARFSGSGSGTDFTLKISRVEAEDLGVYYCFQGSHVPYTFGGGTKLEIK

B2: 26.5: anti-MR1 blocking antibody from hybridoma clone 26.5, IgG2a isotype; heavy chain SEQ ID NO: 4, light chain SEQ ID NO: 8 (antibody, listed as Mus musculus, V domains shown)
VH: MEWSRVFIFLLSITAGVHSQVQLQQSGTELVRPGTSVKVSCKASGYAFSNYLIEWIKQRPGQGLEWIGVINPGSGGISYNEKFKGKATLTADKSSSTAYMQLSSLTSEDSAVYFCARWGYLYYYTMDHWGQGTSVTVSS
VL: MKLPVRLLVLMFWIPASSSDVLMTQTPLSLPVSLGDQASISCRSSQSIVQGSGNTFLDWYLQKPGQSPKVLIYKVSNRFSGVPARFSGSGSGTDFTLKISRVEAEDLGVYYCFQGSHVPYTFGGGTKLEIK
blocking of MAIT cell interaction with MR1 ([1]; stated as known): block MAIT cells from interacting with MR1
reactivity with mouse MR1 [6]: cross-reacts with both mouse and human MR1
reactivity with human MR1 [7]: cross-reacts with both mouse and human MR1
number of lung metastases ([3]; B16F10 tumor-bearing MR1-/- mice, antibody vs cIg): no further decrease
B16F10 lung metastases ([3]; WT mice, 250 μg/mouse i.p. days -1, 0, 3 and 7, vs cIg, day 14): effectively suppressed lung metastases
suppression of B16F10 lung metastases, three vs four doses ([3]; WT mice, 250 μg/mouse i.p., days -1, 0, 3 vs days -1, 0, 3 and 7): more effective when four doses
